Each block holds one binder with its values, some of them ahead of it. Groups on a side chain read outwards from the residue. No end group written: not given here.
How the values were obtained:
[1] = target: T1, recombinant human NME7-AB (human, UniProt Q9Y5B8 92-376); experiment: ELISA, PSMGFR-Cys coupled BSA on the plate, NME7 detected with B-9
T1 construct: Expressed in E. coli, lacks the DM10 domain, monomer; also called NME7 monomer
T1 sequence: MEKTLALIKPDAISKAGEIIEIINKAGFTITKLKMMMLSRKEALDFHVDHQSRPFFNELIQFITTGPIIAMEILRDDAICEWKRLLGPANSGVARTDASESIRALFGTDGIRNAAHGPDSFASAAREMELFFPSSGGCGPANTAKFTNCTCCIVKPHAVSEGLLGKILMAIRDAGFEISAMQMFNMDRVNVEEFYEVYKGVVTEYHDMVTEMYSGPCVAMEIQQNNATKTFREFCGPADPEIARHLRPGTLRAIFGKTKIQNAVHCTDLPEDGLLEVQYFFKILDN
Description: (§1) The PSMGFR peptide bearing a C-terminal Cysteine (PSMGFR-Cys) was covalently coupled to BSA using Imject Maleimide activated BSA kit (Thermo Fisher). PSMGFR-Cys coupled BSA was diluted to 10 ug/mL in 0.1M carbonate/bicarbonate buffer pH 9.6 and 50 uL was added to each well of a 96 well plate. After overnight incubation at 4° C., the plate was washed twice with PBS-T and a 3% BSA solution was added to block remaining binding site on the well. After 1 h at RT the plate was washed twice with PBS-T and NME7, diluted in PBS-T+1% BSA, was added at different concentrations. After 1 h at RT the plate was washed 3× with PBS-T and anti-NM23-H7 (B-9, Santa Cruz Biotechnology), diluted in PBS-T+1% BSA, was added at 1/500 dilution. After 1 h at RT the plate was washed 3× with PBS-T and goat anti mouse-HRP, diluted in PBS-T+1% BSA, was added at 1/3333 dilution. After 1 h at RT the plate was washed 3× with PBS-T and binding of NME7 was measured at 415 nm using ABTS solution (Pierce).

[2] = target: T1, recombinant human NME7-AB; experiment: sandwich ELISA, PSMGFR-His bound to NME7 held by plate-bound PSMGFR, anti-Histag-HRP
Description: as §1, with “After 1 h at RT the plate was washed 3× with PBS-T and goat anti mouse-HRP, diluted in PBS-T+1% BSA, was added at 1/3333 dilution.” left out, “(Pierce). […]” for “(Pierce).”
(§2) After 1 h at RT the plate was washed 3× with PBS-T and HisTagged PSMGFR peptide (PSMGFR-His) or biotinylated PSMGFR peptide (PSMGFR-biotin), diluted in PBS-T+1% BSA, was added at different concentration. […] After 1 h at RT the plate was washed 3× with PBS-T and binding of PSMGFR peptide to NME7 already bound to another PSMGFR peptide (which could not signal by anti-His antibody or by streptavidin) coupled BSA was measured at 415 nm using a ABTS solution (Pierce).

[3] = target: T1, recombinant human NME7-AB; experiment: sandwich ELISA, PSMGFR-biotin bound to NME7 held by plate-bound PSMGFR, streptavidin-HRP
Description: as §1, with “After 1 h at RT the plate was washed 3× with PBS-T and goat anti mouse-HRP, diluted in PBS-T+1% BSA, was added at 1/3333 dilution.” left out, “(Pierce). […]” for “(Pierce).”
as §2

[4] = target: T1, recombinant human NME7-AB; experiment: sandwich ELISA
Description: as §1, with “After 1 h at RT the plate was washed 3× with PBS-T and goat anti mouse-HRP, diluted in PBS-T+1% BSA, was added at 1/3333 dilution.” left out, “(Pierce). […]” for “(Pierce).”
as §2

binding result [1]: binds
B1: PSMGFR peptide bearing a C-terminal Cysteine, coupled to BSA (peptide)
peptide: GTINVHDVETQFNQYKTEAASRYNLTISDVSVSDVPFPFSAQSGAC([maleimide-BSA])
notes: also called PSMGFR-Cys; PSMGFR-Cys coupled BSA

binding result [2]: binds
B2: His-tagged PSMGFR peptide (peptide)
peptide: GTINVHDVETQFNQYKTEAASRYNLTISDVSVSDVPFPFSAQSGA
notes: also called PSMGFR-His; not shown: histidine tag

binding result [3]: binds
B3: biotinylated PSMGFR peptide (peptide)
peptide: B2 peptide
modifications: also: biotinylated (position not given here)
notes: also called PSMGFR-biotin

binding result [4]: binds
B4: MUC1* extracellular domain peptide (PSMGFR peptide) (peptide)
peptide: B2 peptide
notes: also called synthetic MUC1* peptide; surface immobilized MUC1* peptide
